Experiments:
[1] = molecular target: T1, Full length human HtrA1 (HuHtrA1) (Q23-P480), N-terminal His6 tag (human, UniProt Q92743 23-480); experiment: cell-based or functional assay
[2] = molecular target: T1, Full length human HtrA1 (HuHtrA1) …; experiment: SPR (BIAcore T100), single-cycle kinetics, biotinylated human HtrA1 captured on streptavidin, Fab in solution
Description: (§1) To determine the binding affinity of HtrA1 antibodies by single cycle kinetics, Surface Plasmon Resonance (SRP) measurement with a BIAcore™ T100 instrument was used. Briefly, a series S sensor chip CM5 was activated with EDC and NHS reagents according to the supplier's instructions, and streptavidin (Pierce) was coupled to achieve approximately 2000 response units (RU), followed by blocking un-reacted groups with 1M ethanolamine.
(§2) For kinetics measurements, biotinylated human or murine HtrA1 was first injected at 10 ul/min flow rate to capture approximately 100 RU at 3 different flow cells (FC), except for FC1 (reference), and then 5-fold serial dilutions of anti-HtrA1 Fab in HBS-P buffer (0.01M HEPES pH 7.4, 0.15M NaCl, 0.005% surfactant P20) from low (0.48 nM) to high (300 nM) [5 points] were injected (flow rate: 30 μl/min) one after the other in the same cycle with no regeneration between injections. The sensorgram was recorded and subject to reference and buffer subtraction before evaluation by BIAcore™ T100 Evaluation Software (version 2.0). Association rates (km) and dissociation rates (koff) were calculated using a simple one-to-one Langmuir binding model. The equilibrium dissociation constant (Kd) was calculated as the ratio koff/kₒₙ.

[3] = molecular target: T2, Full length murine HtrA1 (MuHtrA1) (P24-P480), N-terminal His6 tag (murine, UniProt Q9R118 24-480); experiment: SPR (BIAcore T100), single-cycle kinetics, biotinylated murine HtrA1 captured on streptavidin, Fab in solution
T2 construct: Expressed in insect cells
Description: as §1, §2

D250A = molecular target: T3, D250A; experiment: ELISA on plate-coated HuHtrA1_PD mutants (Example 7); column head on the sheet reads YW505.94 Fab, legend paragraph 70 says IgG94
T3 construct: also called HuHtrA1_PD(D250A)
Procedure: (§3) The mutants were expressed in E. coli and the trimers purified by size exclusion chromatography as described in Example 2. Binding was determined using an ELISA assay, which was conducted using a MAXISORP™ microtiter plate coated with HuHtrA1_PD mutants at 2 μg/ml in PBS for 1 h, followed by blocking with PBST buffer (0.5% BSA and 0.05% Tween 20 in PBS) for 1 h at room temperature. […] The plates were washed with PBT buffer (0.05% Tween 20 in PBS), and HRP-conjugated goat anti-human IgG (H+L) (Invitrogen) was added (1:5000 in PBST buffer) and incubated for 1 h. The plates were washed with PBT buffer and developed by adding tetramethylbenzidine substrate (Kirkegaard and Perry Laboratories, Gaithersburg, Md.). The absorbance at 450 nm was plotted as a function of antibody concentration in solution to determine EC₅₀ values.
(§4) In trypsin-like serine proteases these loops are known to be part of the specificity determining region that interacts with substrates.

[4] = molecular target: T4, HuHtrA1_PD(S328A), catalytically inactive protease domain of human HtrA1 (human, UniProt F1N152 168-386 (bovine entry)); experiment: as above
T4 construct: Trimer; not shown: thrombin cleavage site
T4 chain: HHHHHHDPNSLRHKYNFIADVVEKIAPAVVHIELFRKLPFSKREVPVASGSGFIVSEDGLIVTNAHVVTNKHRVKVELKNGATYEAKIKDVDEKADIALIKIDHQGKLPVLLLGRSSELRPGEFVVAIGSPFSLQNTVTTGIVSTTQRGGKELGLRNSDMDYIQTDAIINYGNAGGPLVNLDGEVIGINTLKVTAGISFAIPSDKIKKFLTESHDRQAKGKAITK
Procedure: as §3, §4

HuHtrA1_PD(V201A) = molecular target: T5, HuHtrA1_PD(V201A) (human, UniProt F1N152 168-386 (bovine entry)); experiment: as above
T5 construct: Alanine mutant of HuHtrA1_PD; also called HuHtrA1 mutant V201A; not shown: thrombin cleavage site
T5 chain: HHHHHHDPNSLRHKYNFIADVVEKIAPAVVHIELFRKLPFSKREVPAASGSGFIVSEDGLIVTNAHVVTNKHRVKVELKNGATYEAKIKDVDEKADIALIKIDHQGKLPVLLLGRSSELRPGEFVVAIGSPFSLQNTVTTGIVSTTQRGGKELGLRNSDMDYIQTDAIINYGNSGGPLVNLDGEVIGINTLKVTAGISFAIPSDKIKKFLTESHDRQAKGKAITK
Procedure: as §3, §4

HuHtrA1_PD(H220A) = molecular target: T6, HuHtrA1_PD(H220A) (human, UniProt F1N152 168-386 (bovine entry)); experiment: as above
T6 construct: Alanine mutant of HuHtrA1_PD; also called HuHtrA1 mutant H220A; not shown: thrombin cleavage site
T6 chain: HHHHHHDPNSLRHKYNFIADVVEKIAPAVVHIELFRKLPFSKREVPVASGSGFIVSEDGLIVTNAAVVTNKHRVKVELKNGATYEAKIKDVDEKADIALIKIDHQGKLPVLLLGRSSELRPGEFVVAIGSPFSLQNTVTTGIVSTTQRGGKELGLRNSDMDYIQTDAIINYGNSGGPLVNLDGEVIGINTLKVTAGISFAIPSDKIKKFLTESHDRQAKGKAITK
Procedure: as §3, §4

[5] = molecular target: T7, Protease domain of human HtrA1 (HuHtrA1_PD), residues D161-K379 (human, UniProt F1N152 168-386 (bovine entry)); experiment: ELISA on plate-coated wild-type HuHtrA1_PD, row WT (Example 7); column head on the sheet reads YW505.94 Fab, legend paragraph 70 says IgG94
T7 construct: Expressed in E. coli; not shown: thrombin cleavage site between tag and D161
Procedure: as §3

T1 sequence (Q92743 other isoform, or with tags, fused parts or gaps): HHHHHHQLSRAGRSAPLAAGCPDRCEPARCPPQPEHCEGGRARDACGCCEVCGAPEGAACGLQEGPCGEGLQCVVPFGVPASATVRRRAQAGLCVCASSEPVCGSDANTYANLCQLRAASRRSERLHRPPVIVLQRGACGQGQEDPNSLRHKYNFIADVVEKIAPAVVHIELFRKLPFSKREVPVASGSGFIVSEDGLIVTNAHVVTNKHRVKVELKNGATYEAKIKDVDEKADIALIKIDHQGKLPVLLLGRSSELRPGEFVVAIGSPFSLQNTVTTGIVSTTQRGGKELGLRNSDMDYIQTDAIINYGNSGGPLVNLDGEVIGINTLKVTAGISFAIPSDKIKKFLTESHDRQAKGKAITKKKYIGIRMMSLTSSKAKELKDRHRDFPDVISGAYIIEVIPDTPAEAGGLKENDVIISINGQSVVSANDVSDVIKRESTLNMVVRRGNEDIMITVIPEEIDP
T2 sequence (Q9R118 other isoform, or with tags, fused parts or gaps): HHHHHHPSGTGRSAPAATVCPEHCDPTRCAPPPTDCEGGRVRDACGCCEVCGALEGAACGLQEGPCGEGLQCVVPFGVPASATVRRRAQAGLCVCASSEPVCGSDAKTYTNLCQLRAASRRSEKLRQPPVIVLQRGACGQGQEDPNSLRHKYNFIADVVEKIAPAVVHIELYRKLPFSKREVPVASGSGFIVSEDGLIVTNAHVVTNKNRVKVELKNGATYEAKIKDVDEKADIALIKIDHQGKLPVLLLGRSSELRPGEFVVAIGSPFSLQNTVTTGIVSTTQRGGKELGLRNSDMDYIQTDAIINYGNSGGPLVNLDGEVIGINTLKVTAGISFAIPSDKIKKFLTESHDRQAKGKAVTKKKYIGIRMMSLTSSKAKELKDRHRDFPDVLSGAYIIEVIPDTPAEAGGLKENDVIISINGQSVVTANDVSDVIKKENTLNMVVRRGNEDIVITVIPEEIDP
T7 sequence (F1N152 other isoform, or with tags, fused parts or gaps): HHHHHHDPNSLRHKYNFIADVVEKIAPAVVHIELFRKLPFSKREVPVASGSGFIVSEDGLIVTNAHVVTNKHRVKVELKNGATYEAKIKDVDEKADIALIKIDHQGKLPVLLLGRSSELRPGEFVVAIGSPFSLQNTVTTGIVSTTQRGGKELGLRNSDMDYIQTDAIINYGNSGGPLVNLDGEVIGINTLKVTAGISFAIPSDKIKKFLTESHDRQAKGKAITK

- IC50, inhibition of H2-Opt peptide hydrolysis (FRET assay) [1]: 29.1 nM
- Kd [2]: 31.1 nM
- koff [2]: 0.0109 s⁻¹
- kon [2]: 351000 M⁻¹ s⁻¹
- Kd [3]: 28.9 nM
- koff [3]: 0.0129 s⁻¹
- kon [3]: 447000 M⁻¹ s⁻¹
- EC50 (D250A): 9.4 nM
- Relative to WT EC50 Fold Decrease (D250A): 1.7 fold
- EC50 [4]: 2.3 nM
- Relative to WT EC50 Fold Decrease [4]: 0.4 fold
- EC50 (HuHtrA1_PD(V201A)): 112 nM
- Relative to WT EC50 Fold Decrease (HuHtrA1_PD(V201A)): 20 fold
- EC50 (HuHtrA1_PD(H220A)): 32 nM
- Relative to WT EC50 Fold Decrease (HuHtrA1_PD(H220A)): 5.7 fold
- EC50 [5]: 5.6 nM
- Relative to WT EC50 Fold Decrease [5]: 1 fold
B1: Fab94 (anti-HtrA1 antibody YW505.94, Fab format) (Fab, V domains shown)
VH: EVQLVESGGGLVQPGGSLRLSCAASGFNISGYYIHWVRQAPGKGLEWVGWIDPYGGDTNYADSVKGRFTISADTSKNTAYLQMNSLRAEDTAVYYCARGTFLTSWGHYFDYWGQGT
VL: DIQMTQSPSSLSASVGDRVTITCRASQDVSTAVAWYQQKPGKAPKLLIYSASFLYSGVPSRFSGSGSGTDFTLTISSLQPEDFATYYCQQSYTTPPTFGQGTKVEIKR

— patent US20190016826A1 (Genentech, published 2019)
